This note sets out measurements from the RNAGym collection of RNA variant scans (doi:10.7554/elife.90254).

The labels stand for the following.
B1: LINE1-full (parent)
chain: UACGUAGGUGGUUUUCCCCUGAUAGUGCUAAGGGGGCCUGGAAGUUUGGACUGGGCAGAGCUCAACACAGCGUGGCAAAGUGGCUGUGGCUAGACUGCCUCUCUGGAUUCCUCGUCACUCAGCAGGGCAUCUCUGAGAGAAAUGCC

Variants of B1 are the subject of this data set. Description: self-cleavage, relative activity (ratio to wild type); higher = more cleavage; in vitro, sequencing; the parent is a self-cleaving ribozyme.
U13C U130G: the self-cleavage is 0.95. On to U14A A138U, for which the self-cleavage was found to be 1.07.

In the case of U13A A59G, the self-cleavage is 0.07. U14A A22U: the self-cleavage turned out to be 1.6. Next, U13C C131U: 1.79; U12G U119G: 0.8.

In the case of U14A A65G, the self-cleavage was found to be 0.06. With U13A U20C, the self-cleavage was determined as 1.03.

Regarding U12G G36A, the self-cleavage amounted to 0.22. As to U13C U134C, the self-cleavage turned out to be 1.21. As to U13A A30G, the self-cleavage came to 0.97. Turning to U13G U108C, the self-cleavage amounted to 1.31. Consider U13G U108G, for which the self-cleavage amounted to 1.2. Turning to U13A A65U, the self-cleavage is 0.09. With U13A A65G the figure was 0.08; with U13C C63U, 0.32; with U13C U119A, 1.15. With U13C U119G the figure was 1.28. Next, U13G A31G: 0.39; U13C G41U: 1.14; U13C C99G: 0.39. Take U12C U130C: the self-cleavage was 1.4. In the case of U13A U15A, the self-cleavage worked out at 0.59. Take U13G U23C: the self-cleavage was determined as 0.76.

As to U13C U26C, the self-cleavage was 1.01. Regarding U13C U26A, the self-cleavage was found to be 0.97. Turning to U13C C68U, the self-cleavage came out at 0.17. Take U13G C145U: the self-cleavage was determined as 1.16.

As to U13C C123A, the self-cleavage turned out to be 1.42.

With U13A A94G, the self-cleavage was 0.19. Regarding U13C G125U, the self-cleavage was 1.4. As to U13C A31C, the self-cleavage is 0.97. Next, U13C A31G: 0.84.

For the variant U13A U87C, the self-cleavage was determined as 0.16. Consider U13A U87A, for which the self-cleavage worked out at 0.07.

Turning to U13C C111A, the self-cleavage was determined as 1.57. Next, U12G U100C: 1.33; U13G A59G: 0.12. Next, U13A U45C: 1.01; U13G C113A: 1.43. Regarding U12G G34U, the self-cleavage was 2.48. With U12G A141U the figure was 1.29; with U14A A57G, 0.75. For U14A A57U, the self-cleavage stood at 0.03.

For the variant U14A A57C, the self-cleavage came out at 0.04. Turning to U13C G139A, the self-cleavage came out at 0.92.

In the case of U12G U102C, the self-cleavage was 0.59.

As to U13G U47A, the self-cleavage was 0.86. U13A A57G: the self-cleavage was 0.51. As for U13A A57U, the self-cleavage was found to be 0.06.

Consider U13C U132G, for which the self-cleavage came to 1.02.

U13C G35C: the self-cleavage came to 1.24.

As for U13C G35U, the self-cleavage was determined as 0.75.

Turning to U12C U119A, the self-cleavage was 1.78. With U13G U46C, the self-cleavage was 1.33. As for U12G U109A, the self-cleavage amounted to 1.47. As for U13A U100A, the self-cleavage is 0.59.

As to U13A U100C, the self-cleavage was 1.28. With U13A A141G the figure was 1.26; with U12G C145G, 0.99.

Take U13C G44A: the self-cleavage stood at 0.75.

Take U13A G55A: the self-cleavage is 0.21. As for U13A U47C, the self-cleavage is 0.59. Take U12G A24U: the self-cleavage turned out to be 1.5. As for U13A A136G, the self-cleavage was 1.38. In the case of U13A A136U, the self-cleavage was found to be 1.22. Regarding U12G G70A, the self-cleavage stood at 0.07. For U12G U14A, the self-cleavage turned out to be 0.44.

As for U12C U96G, the self-cleavage turned out to be 0.28. With U13C U45A the figure was 0.76. As for U13C U45C, the self-cleavage amounted to 1.16. On to U13A A31C, for which the self-cleavage turned out to be 1.52.

U13C A94U: the self-cleavage worked out at 0.42. Next, U13C A94C: 0.11. Next, U13C A64G: 0.35; U12G G58A: 0.11. Turning to U13C G72U, the self-cleavage stood at 1.21. For the variant U13A A121G, the self-cleavage came out at 0.88. For the variant U13C U104A, the self-cleavage turned out to be 1.18.

For U13C U104C, the self-cleavage is 1.28. Take U12C U143A: the self-cleavage was 1.25.

In the case of U13G U115C, the self-cleavage stood at 1.39.

In the case of U13C A142G, the self-cleavage is 1.3. For the variant U13C A107U, the self-cleavage was 1.14.

Regarding U13C C38U, the self-cleavage amounted to 1.15. On to U12G G32C, for which the self-cleavage turned out to be 1.04. As for U13C A22G, the self-cleavage was found to be 1.11.

As to U12G C99A, the self-cleavage amounted to 0.32. Turning to U13C G88U, the self-cleavage turned out to be 0.09. With U13C U29A the figure was 0.95; with U13C U29C, 1.35; with U13A U102C, 0.84.

U13A U102G: the self-cleavage came to 0.41. Take U13A U104A: the self-cleavage is 0.94. On to U13A U104C, for which the self-cleavage is 1.51. U12G U47A: the self-cleavage came to 0.95. Next, U13A U52C: 1.78.

With U13A G126A, the self-cleavage was determined as 1.08. With U13A U96A, the self-cleavage was 0.05. Turning to U13G U20A, the self-cleavage amounted to 0.69. As to U12C U104A, the self-cleavage was determined as 1.3. With U12C U104C the figure was 1.56. In the case of U13C G36C, the self-cleavage amounted to 0.96. On to U13A A50U, for which the self-cleavage is 0.58.

On to U13G A138G, for which the self-cleavage is 1.45. Take U13C A50G: the self-cleavage amounted to 0.63. As to U12G U96C, the self-cleavage turned out to be 0.27. For the variant U14A A124G, the self-cleavage was 0.62. With U14A A124U the figure was 1.67. Consider U13C C110A, for which the self-cleavage came out at 1.29. U13G A79G: the self-cleavage was determined as 2.7. For the variant U12G U81A, the self-cleavage is 2.33. With U12G U81G the figure was 0.68; with U13A G114A, 1.03; with U13A A138G, 1.22. As to U13C C113U, the self-cleavage amounted to 1.

Consider U13C C113A, for which the self-cleavage amounted to 0.44. In the case of U13C U87C, the self-cleavage came to 0.24.

Regarding U13C U87A, the self-cleavage was determined as 0.1.

Turning to U13A G54U, the self-cleavage stood at 0.51. For U13G A141G, the self-cleavage worked out at 0.94. Next, U12G: 1.13; U13C U96A: 0.11; U13C U96C: 0.17. As to U13C U46C, the self-cleavage worked out at 1.17. With U13C G126A, the self-cleavage is 1.22. For U12G U91C, the self-cleavage was 1.02. With U13A U134A the figure was 0.51; with U13A U134G, 1.34. Next, U13A A129G: 1.2.

As for U13A A129U, the self-cleavage is 0.81. As to U12G A78G, the self-cleavage stood at 0.

In the case of U12G U73A, the self-cleavage stood at 1.68.

As for U12G U73C, the self-cleavage was 1.54. Consider U13C A124U, for which the self-cleavage turned out to be 1.28. With U13C A124C, the self-cleavage is 1.67.

U12C U109A: the self-cleavage was determined as 1.49. Turning to U12G A65G, the self-cleavage came out at 0.23.

Regarding U12G A59G, the self-cleavage turned out to be 0.23. Take U13G U102C: the self-cleavage worked out at 0.66. For the variant U12G A31G, the self-cleavage amounted to 0.87. For U13C C56U, the self-cleavage stood at 0.15. Take U12C U115A: the self-cleavage is 0.87.

For the variant U12C U115G, the self-cleavage came to 2.63. With U13A G60C the figure was 0; with U14A A107G, 1.1; with U13G G105A, 0.74. On to U13C G93U, for which the self-cleavage amounted to 0.03.

With U13C G93A, the self-cleavage turned out to be 0.17. In the case of U12G A57U, the self-cleavage is 0.17.

Consider U12G G54A, for which the self-cleavage stood at 0.63.

For the variant U12G U15C, the self-cleavage worked out at 0.9.

U14A A77C: the self-cleavage was 0.88. U14A C90U: the self-cleavage was 0.04. With U12G A140G the figure was 0.91; with U12G A140C, 0.48. With U13C A141U the figure was 1.57. As for U13C A141C, the self-cleavage came to 1.59. As for U13C A141G, the self-cleavage came to 1.18.

With U14A C63U, the self-cleavage amounted to 0.09. On to U13A C99U, for which the self-cleavage was 0.46.

For the variant U12G A136G, the self-cleavage turned out to be 1.72. U12C U102C: the self-cleavage is 1.18. As for U12C U102G, the self-cleavage came to 0.88.

As for U12G G44U, the self-cleavage was 1.1. Next, U13A U112A: 0.45; U13A U112C: 0.9.
